In the supplement of paper PMC12855868:

B1: library; numbered along this chain (parent)
chain: MAAAGGARLLRAASAVLGGPAGRWLHHAGSRAGSSGLLRNRGPGGSAEASRSLSVSARARSSSEDKITVHFINRDGETLTTKGKVGDSLLDVVVENNLDIDGFGACEGTLACSTCHLIFEDHIYEKLDAITDEENDMLDLAYGLTDRSRLGCQICLTKSMDNMTVRVPETVADARQSIDVGKTS

Variants of: B1
Experiment: scaled log2 fold change in cell abundance, elesclomol vs control (0 = silent mean, 1 = nonsense mean) (scaled log2 ratio); higher = higher viability under elesclomol (loss of FDX1 cuproptosis function)
Conditions: glucose 10 mM
[1] = with ABC1 FDX1 KO, elesclomol 5 nM, 14 days
[2] = with HEK293T FDX1 KO, elesclomol 40 nM, 11 days
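Note: variant abundance is its share of total variant reads in each endpoint sample, from next-generation sequencing of the integrated ORF PCR-amplified out of genomic DNA.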

| Variant | scaled log2 fold change [1] | scaled log2 fold change [2] |
| --- | --- | --- |
| M163Y | 0.547 | -0.538 |
| T164A | 0.408 | 0.0905 |
| T164C | 0.25 | 0.194 |
| T164D | 0.108 | 0.818 |
| T164E | -0.00918 | 0.119 |
| T164F | 0.0235 | -0.4 |
| T164G | 0.367 | -0.293 |
| T164H | 0.213 | -0.0955 |
| T164I | -0.259 | -0.338 |
| T164K | -0.0707 | 0.0715 |
| T164L | -0.159 | -0.224 |
| T164M | -0.076 | -0.072 |
| T164N | 0.361 | 1.04 |
| T164P | 0.508 | -0.0295 |
| T164Q | -0.171 | – |
| T164R | -0.0678 | -0.0374 |
| T164S | -0.253 | 0.99 |
| T164V | 0.342 | 1.31 |
| T164W | -0.403 | -0.13 |
| T164Y | -1.38 | 0.173 |

| Variant | scaled log2 fold change [1] | scaled log2 fold change [2] |
| --- | --- | --- |
| V165A | -0.0573 | -0.318 |
| V165C | 0.0302 | 0.944 |
| V165D | 1.12 | 0.895 |
| V165E | 1.06 | 1.35 |
| V165F | 0.53 | 0.286 |
| V165G | 0.475 | 0.411 |
| V165H | 1.12 | 0.873 |
| V165I | -0.183 | -0.249 |
| V165K | 1.08 | 1.01 |
| V165L | -0.0209 | -0.834 |
| V165M | -0.123 | -0.424 |
| V165N | 0.812 | 1.02 |
| V165P | 0.71 | 0.4 |
| V165Q | 1.06 | 1.21 |
| V165R | 1.09 | 1.45 |
| V165S | 0.00333 | 0.568 |
| V165T | 0.13 | -0.566 |
| V165W | 0.852 | 0.405 |
| V165Y | 1.03 | 1.38 |
| R166A | 0.373 | 0.284 |

| Variant | scaled log2 fold change [1] | scaled log2 fold change [2] |
| --- | --- | --- |
| R166C | -0.501 | -0.211 |
| R166D | 0.375 | -0.407 |
| R166E | -0.677 | -0.967 |
| R166F | -0.233 | 0.799 |
| R166G | 0.266 | -0.344 |
| R166H | -0.236 | – |
| R166I | -0.0924 | -0.203 |
| R166K | -0.502 | -0.393 |
| R166L | -0.509 | 0.328 |
| R166M | 0.144 | -0.000209 |
| R166N | -0.198 | 0.918 |
| R166P | 1.06 | 1.77 |
| R166Q | -0.338 | -0.083 |
| R166S | 0.275 | -0.368 |
| R166T | 0.529 | -0.473 |
| R166V | -0.116 | 0.509 |
| R166W | -0.00581 | 0.748 |
| R166Y | 0.394 | 1.92 |
